Data from a protein production outcome set (Wang et al. 2014).

Test: label from the status in PepcDB records
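Further: failed if final PepcDB status was selected cloned or expressed and not failed if soluble or beyond.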

Sequence: MSVTTTETTGTAPALPRKTLGLAMIGLAVMMTLLHYAGLLPAWLHRLPEAIIPPFATWLDAIFNFVKDDLGLLALTRLLTDGLEVVLDATANLLFGKRRWPNIGPIPWSAIAAMTAVVGYYLGGWRMALLAGGTFVWTAMIGQWDIAMQTMSVLVVAAPLAFAIGLVLGISAWKSPSFDAVLRPVLAVLQTLPFFTYLLPAVIFFKVGPTAGAVATTVYAIPPMILMTTLGLQKVSPEVVEAGKMSGCTRWQMLRHVYIPAARTEILVGVNQVIMLCLAMVVLTAFIGMPGLGAKLLAMMGSFKIGRSFEIGVTIVLLAVTLDRMSKAWVVKLPEHFERGTPFWIRHKFLLMAIGAFVGFTLIAQVVPILSEVGRKQSWSQGKEIDTLIKGFLAIDAVQAITNSIRYVLNIWVLNPLRDFMLSIPTVAFVLFISAAALLVAGRREAVLAAAFFGLVALTGWWDRSVITLYSVLAAVSIALLLGVPIGVVAARKEKTANAVLLACDTAQTFPSFIYLIPAIMLFGITATSVVMSILIFSMVPLVRYTIEGLRNVPDEMTEAADMAGATRMQKLWNVQLPLALPTMAVGFNQAIMFAFFMVIIAAFIGTQDLGQELQRTLAGTDLGKNFVLGICVTLMALTFDMVIMKWADDKKARLGLN
- protein production: failed

Sequence: MSVVSPDPAPVPHDPQRRALLRWLVGGGALAGGLGVSAVAQGYRFGVTHEQWNLVGLTRPVRLALLTDLHYGLYIGAGSVRRWVDATLAECPDLILLGGDLVDSHFDAAARPQQTAALLAELGRLRAPLGVYAVWGNHDYGSFGRSISQSPEASRADWAARRDALRAGLAGQGVTVLLNEGRSLRDDLWLGGVDDLRMGEADSVAALRGSGTRATVLLAHNPDVLLRLRSAPGLVLSGHTHGGQVRLPLLGALKVPADPRFTMGWVRGPQGIPAYVSRGLGMSGLPVRNLCEPEITLLTLLPPGALEHHHHHH
- protein production: failed

Sequence: MSWFTTQRHSGLCRDFGRRWRRVATISSAIALICAQPLFAVPAAKPNEDFFSIAKSIELLGDVYKNVAQNYVDPVNVSEFMYSGIDGMLGQLDPYTAFLDEEQSGELDEITSGQYAGIGVTLGIFSGDLFIISVIDGQPAAKAGLKVGDQIIAIDGVKVSKKSIDEVRSTIKGSPGTNIRLSIKRDGQGPLTVISLTRGEVRISSVPFFGLFGSSGYVQMNSFSEHSREELSAAIRKIRQEAAKNRVVLNGIVLDLRGNPGGLLTSAVEVAGLFVEKNSRIVSTRGRAADSEQVYVTKTEPQEPTLPLVVMIDGDSASASEIVSGAIQELDRGVILGENSFGKGLVQSIINLPYDHILKMTTAKYYTPSGRLIQKPIARDESRRKVVLSNGDADSTKVFYTRNRRKVYGGGGIRPDVVAKADSLSEYQHKIENSGLLFRYASRFHRKHPEFRLQQLSSEPLYDDFNRFLEKEHFSFRSGAQKTLDSLKTLVQKEAGADKALAGQLDALDKALAASTRRNISRDSLHITAALQREIMRHYDERAALKRAIEDDPVAAKAFALLGDQKRYRSLLKP
- protein production: failed

Sequence: MSWKIIEKYRRILAQEEGNSPKRRGGKLTVCLVYPNRYGVAMSNLGFQAVHALLNAESDILCERAFLPDPDDLREYRRSGARLLSLESQEPLSSFDIIAFSVSFESDYLNIPVIFDLAGIPALAAERTGSHPLVMGGGAALFLNPEPVADFLDLIVVGEGEAILPTFLDHIRADGIGDRAMFLAGVAGLPGIYVPSLYATEYDGARLVSREAKDGAPEQVKRIWMAEPDGRATVSEILTPGTEFSDMYLVEVSRGCGRGCRFCAAGFIYHPYRQRSLDAVKAAVAEGLSHRRKIGLVGAAVSDFREIGELCRHILAEGGTVSVSSLRIDRLDEGMIEVLKASGHKTVALAPEGGSQRIRDLINKNLTEEQILAACDLLIGHDILNLKLYFIIGLPTETMDDLEEMALLVEKIRKRVIAAARKNKRLGEIILSVNPFVPKPFTPFQWCGMEDTPSLEKKLKYLQQTVGRLSNVRLIAESPKDAWLQALLSRGDRRLSGFLLRAAELGNWKRAAREFPVDTDFLVHRTIPLDEMLPWDVIASADAERLRREYLKATPPRLEHHHHHH
- protein production: failed

Sequence: MSWLLVIAAGFLEVVWASGLKHADSFVDWLMIFVLIAVSFIMLIRSYRNIPMASAYTVFVGIGTAGTYVTGIFMGETFSGGQIFFLIVLLGGIIGMKMFTKENNAQSGGDE
- protein production: failed

Sequence: MSWMQNLKNYQHLRDPSEYMSQVYGDPLAYLQETTKFVTEREYYEDFGYG
- protein production: failed

Sequence: MSWWQDMDQRGGVSSPSGALASAEPAPASVTLAELLHLVQKGQEVPGLEKRHITATHGEPTASLLPRRPKPWEDAGSAASPCTIALDTRTQPPTIEERSRGSPAAQLDGGPRVS
- protein production: failed

Sequence: MSYILIVTIAIVIFSLIFDFINGFHDTANAVATAVSTRALTPRRAILLAAVMNFIGALTFTGVAGTITKDIVDPFKLQHGLVVVLAAIIAAIIWNLITWLYGIPSSSSHALIGSIAGAAIASKGSFAVLHYQGFTKIIIVLIISPIIAFCVGYMMYTIVKIVFKNSNLTRTNRNFRFFQIFTAALQSFSHGTNDAQKSMGIITLALIVGNLQDGSNVEPQVWVKVVCATAMGLGTAVGGWKIIKTVGGNIMKIRPANGAAADISSALTIFVASSLHFPLSTTHVVSSSILGVGASNRAKGVKWSTAQRMVVTWVITLPISAVLAAIIYFIIHLFLK
- protein production: failed

Sequence: MSYLSQAPLYSSIPRKNCPIAWEGQFTRGDKGTSTISFEAVASHDLWIWHTFFGCASTLNDINFLDRSPVFDDIEQGNTPRVNFFVYQRQYNMAYYLADGIYPSYPTFVKSIRLPQSEPDKLFVQLQEGCRKDIERAFGVLHARFKIIWNIADLAIIMRSCIILHNMIVENERDTYAQHWTDYDQSKESGSSTPQPFSTEVLHAFANHVHARSKLRDSICTS
- protein production: not failed

Sequence: MSYLVVTIKVILITGMPGSGKSEFAKLLKERGAKVIVMSDVVRKRYSIEAKPGERLMDFAKRLREIYGDGVVARLCVEELGTSNHDLVVFDGVRSLAEVEEFKRLLGDSVYIVAVHSPPKIRYKRMIERLRSDDSKEISELIRRDREELKLGIGEVIAMADYIITNDSNYEEFKRRCEEVTDRVLKNG
- protein production: failed

Sequence: MSYQNANYSAFYVSEPFSESNLGANSTHDFVYYNMLRMWKGEDNSFPFNDAHDKTYNVRDGSDWEKTLKPRLHTRLDNSKNIILFLSSITANSRALREEMNYGIGTKGLPVIVIYPDYDKKSDIVDSNGNFKKQIKDLWDKLPAFRDNMSSVATLHIPCTKSVIISALNNEDFMVNTMADAEKYYYKP
- protein production: not failed

Sequence: MSYQPTSLTVASYNLRNANGSDSARGDGWGQRYPVIAQMVQYHDFDIFGTQECFLHQLKDMKEALPGYDYIGVGRDDGKDKGEHSAIFYRTDKFDIVEKGDFWLSETPDVPSKGWDAVLPRICSWGHFKCKDTGFEFLFFNLHMDHIGKKARVESAFLVQEKMKELGRGKNLPAILTGDFNVDQTHQSYDAFVSKGVLCDSYEKCDYRYALNGTFNNFDPNSFTESRIDHIFVSPSFHVKRYGVLTDTYRSVRENSKKEDVRDCPEEITIKAYEARTPSDHFPVKVELVFDLEHHHHHH
- protein production: not failed

Sequence: MSYQTWWSRVQVVDPEQLLDAVEEWDRPLVALTTPGTLARGLSLQVFRRIAPDEKNLLIIPHFCISGTIEKRLLEEGCCDENKITNENESIRIRCKTMNLHFGFHADTRDLLLFFSQWKPSCIVLVHGEGEKMDYLARVVQEEWGIQCWVPKEEQWITWKPNLTKSQ
- protein production: failed

Sequence: MSYSEIAACLAYAVSVWLAARNNVHTWWIGIIGSILYGWVFWSVQLYADVTLQLFFIATSITGWIHWLKGQGGDILPVRRTQASHFFLLLLCAVVVAGGYGFLLHTFTNAWAPWLDSLILTFSVLAQFMLMGRRIENWFVWLAVNTLAVPLYMTRGLNLTAGLYFLFWINAWHGLYQWRKELQTS
- protein production: failed
